# Residue numbers refer to the chain shown, from its start. In names and notes the source's numbering stands.
# B1: Teprotumumab reference antibody (antibody, V domains shown)
# VH: QVELVESGGGVVQPGRSQRLSCAASGFTFSSYGMHWVRQAPGKGLEWVAIIWFDGSSTYYADSVRGRFTISRDNSKNTLYLQMNSLRAEDTAVYFCARELGRRYFDLWGRGTLVSVSS
# VL: EIVLTQSPATLSLSPGERATLSCRASQSVSSYLAWYQQKPGQAPRLLIYDASKRATGIPARFSGSGSGTDFTLTISSLEPEDFAVYYCQQRSKWPPWTFGQGTKVESK
# B2: D03-YTE (clone D03 with the YTE mutation M252Y/S254T/T256E, EU numbering) (antibody, human IgG1, kappa, V domains shown)
# VH: B1 VH with Y32H, I50Y
# VL: EIVLTQSPATLSLSPGERATLSCRASQSVSSALAWYQQKPGQAPRLLIYDASKRATGIPARFSGSGSGTDFTLTISSLEPEDFAVYYCQQRSKYPPWTFGQGTKVESKR
# Biological target: IGF-1R on NCI-H322 cells (UniProt P08069 31-1367, limits assumed)
# Sequence (P08069 31-1367 limits assumed): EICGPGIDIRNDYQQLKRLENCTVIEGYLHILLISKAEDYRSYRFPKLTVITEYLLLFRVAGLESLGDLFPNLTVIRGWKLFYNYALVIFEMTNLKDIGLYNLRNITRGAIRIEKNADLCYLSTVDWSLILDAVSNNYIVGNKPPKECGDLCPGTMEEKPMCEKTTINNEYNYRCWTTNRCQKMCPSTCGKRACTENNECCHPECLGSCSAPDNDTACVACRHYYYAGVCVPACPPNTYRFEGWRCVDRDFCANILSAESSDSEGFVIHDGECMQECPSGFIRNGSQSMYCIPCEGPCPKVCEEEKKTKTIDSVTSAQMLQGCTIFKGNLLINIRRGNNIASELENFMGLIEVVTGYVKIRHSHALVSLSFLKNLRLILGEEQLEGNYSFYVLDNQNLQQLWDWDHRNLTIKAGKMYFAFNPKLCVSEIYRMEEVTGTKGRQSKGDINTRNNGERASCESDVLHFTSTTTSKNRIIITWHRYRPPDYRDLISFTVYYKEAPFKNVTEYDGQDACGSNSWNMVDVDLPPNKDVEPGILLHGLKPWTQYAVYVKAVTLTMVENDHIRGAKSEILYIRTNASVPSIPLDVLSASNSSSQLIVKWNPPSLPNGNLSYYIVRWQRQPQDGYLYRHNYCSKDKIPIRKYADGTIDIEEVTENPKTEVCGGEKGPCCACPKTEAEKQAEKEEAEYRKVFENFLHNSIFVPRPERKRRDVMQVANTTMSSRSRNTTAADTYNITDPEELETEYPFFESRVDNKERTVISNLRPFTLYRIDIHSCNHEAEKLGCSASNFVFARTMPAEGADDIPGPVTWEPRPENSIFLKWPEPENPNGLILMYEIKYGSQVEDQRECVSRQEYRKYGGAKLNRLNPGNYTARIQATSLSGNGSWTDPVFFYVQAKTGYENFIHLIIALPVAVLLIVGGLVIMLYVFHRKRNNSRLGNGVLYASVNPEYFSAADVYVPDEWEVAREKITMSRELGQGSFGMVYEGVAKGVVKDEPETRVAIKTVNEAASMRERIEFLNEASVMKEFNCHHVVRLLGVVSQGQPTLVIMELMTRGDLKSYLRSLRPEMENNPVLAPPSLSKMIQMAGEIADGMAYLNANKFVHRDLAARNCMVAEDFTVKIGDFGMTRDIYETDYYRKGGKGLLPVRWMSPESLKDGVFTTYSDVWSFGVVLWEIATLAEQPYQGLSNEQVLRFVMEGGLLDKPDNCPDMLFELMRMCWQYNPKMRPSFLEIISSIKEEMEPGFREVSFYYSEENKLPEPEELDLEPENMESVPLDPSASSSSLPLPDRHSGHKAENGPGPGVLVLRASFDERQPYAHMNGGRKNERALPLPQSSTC
# Assay: cell-based or functional assay
binder,measurement,value
B1,"IC50 of inhibition of IGF-1R phosphorylation (antibody dilution started at 100 ug/mL, diluted 1/8)",0.397 µg/mL
B2,"IC50 of inhibition of IGF-1R phosphorylation (antibody dilution started at 100 ug/mL, diluted 1/8)",0.0205 µg/mL

# — patent publication US20250197511A1 (HORIZON THERAPEUTICS IRELAND DAC, published 2025)
